Consider 94 variants from the supplement of paper PMC10567573.

B1: RPAIN (parent)
chain: ISEYEKSLQFDEKCLSIMLAEWEA
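Also: lentivirally expressed fusions sorted by FACS into six bins by GFP to DsRed ratio, PSI derived from sequencing read proportions per bin multiplied by bin number.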

The variants in the data set derive from B1. The experiment in a line: protein stability index of a GFP-peptide fusion (GPS, HEK-293T) (PSI 1-6); higher = more stable. The settings on record: c terminus: a fixed tail appended.
For the variant ISEGEKSLQFDEKCLSIMLAEWEA, the protein stability index was 1.83. Next, ISENEKSLQFDEKCLSIMLAEWEA: 2.15. ISEEEKSLQFDEKCLSIMLAEWEA: the protein stability index came to 2.13.

For the variant ISELEKSLQFDEKCLSIMLAEWEA, the protein stability index is 2.33. Take ISEQEKSLQFDEKCLSIMLAEWEA: the protein stability index was 1.8. Then LSEYEKSLQFDEKCLSIMLAEWEA, with 1.64; and MSEYEKSLQFDEKCLSIMLAEWEA, with 2.42; and ISEYEKSLQFDEKCLSIMLAEWNA, with 2.14. Then ISEYEKSLQFDEKCLSIMLAEWCA, with 1.87; and ISEYEKSLQFDEKCLSIMLAEWYA, with 1.61. As to ISEYEKSLQFDEQCLSIMLAEWEA, the protein stability index is 1.47. Next, ISEYEKSLQFDETCLSIMLAEWEA: 1.44; ISEYEKSLQFDEGCLSIMLAEWEA: 1.8; ISEYEKSLQFDEFCLSIMLAEWEA: 1.91. Then ISEYEKSLQFDEKCLSIMLEEWEA, with 1.98; and ISEYEKSLQFDEKCLEIMLAEWEA, with 1.96; and ISEYEKSLQFDEKCLGIMLAEWEA, with 2.34. Turning to ISEYEKSLQFDEKCLNIMLAEWEA, the protein stability index stood at 1.37. Then ISEYEKSLQFDEKCLFIMLAEWEA, with 2.09. Then ISEYEKSLQFDEKCLWIMLAEWEA, with 1.86; and ISEYEKSLQFDEKCLRIMLAEWEA, with 2.62. Then ISEYEKSLMFDEKCLSIMLAEWEA, with 2.03; and ISEYEKSLDFDEKCLSIMLAEWEA, with 2.02. Take ISEYEKSLNFDEKCLSIMLAEWEA: the protein stability index came out at 2.32.

As for ISEYEKSLSFDEKCLSIMLAEWEA, the protein stability index was 1.7. Next, ISEYEKSLAFDEKCLSIMLAEWEA: 1.76. Turning to ISEYEKSLTFDEKCLSIMLAEWEA, the protein stability index turned out to be 1.86.

For the variant ISEYEKSLCFDEKCLSIMLAEWEA, the protein stability index is 1.64. Next, ISEYEKSLQFDEKCLSIMLAWWEA: 2.81. Then ISEYEKSLQFDEKCLSIMLARWEA, with 3.58; and ISEYEKSLQFDEKCLSIMLAIWEA, with 3.31. Next, ILEYEKSLQFDEKCLSIMLAEWEA: 2.1.

As for IWEYEKSLQFDEKCLSIMLAEWEA, the protein stability index came to 2.59.

Turning to ISEYEKSLQFDEKCLSHMLAEWEA, the protein stability index is 2.51. Then ISEYEKSLQFDEKCLSLMLAEWEA, with 1.85; and ISEYEKSLQFNEKCLSIMLAEWEA, with 2.45; and ISEYEKSLQFHEKCLSIMLAEWEA, with 1.68. Regarding ISEYEKSLQFSEKCLSIMLAEWEA, the protein stability index amounted to 2.29. Then ISEYEKSLQLDEKCLSIMLAEWEA, with 2.07; and ISEYEKSLQVDEKCLSIMLAEWEA, with 2.45. Then ISEYEKSLQQDEKCLSIMLAEWEA, with 3.51; and ISEYEKSLQFDEKCLSIMLAEWER, with 1.73; and ISEYEKSLQFDEKCLSIMLAEWEQ, with 2.54. Next, ISEYEKSLQFDEKCLSIMLAEWEW: 1.59; ISEYEKSLQFDEKCLSIMLAEWEF: 3.13. In the case of ISEYEKSLQFDCKCLSIMLAEWEA, the protein stability index amounted to 1.9. Then ISEYEKSLQFDRKCLSIMLAEWEA, with 2.33.

For ISEYEKSLQFDVKCLSIMLAEWEA, the protein stability index stood at 1.26. Take ISEYEKSLQFDEKCLSIMGAEWEA: the protein stability index turned out to be 3.04.

As to ISEYEKSLQFDEKCLSIMMAEWEA, the protein stability index turned out to be 2.12.

For the variant ISEYEKSLQFDEKCLSIMYAEWEA, the protein stability index was determined as 2.88. As to ISEYEKSLQFDEKCLSIMSAEWEA, the protein stability index came out at 3.4. Then ISEYEKSLQFDEKCLSIMWAEWEA, with 2.5; and ISEYEKSLQFDEKCLSIMAAEWEA, with 2.59; and ISEYEKSLQFDEKCLSIMEAEWEA, with 4.02.

ISEYEKSLQFDEKCLSIMFAEWEA: the protein stability index was found to be 3.03. Then ISEYEKSLQFDEKCYSIMLAEWEA, with 3.38; and ISEYEKSLQFDEKCPSIMLAEWEA, with 4.02; and ISEYEKSLQFDEKCISIMLAEWEA, with 3.52.

On to ISEYEKSLQFDEKCSSIMLAEWEA, for which the protein stability index was determined as 3.92. Then ISEYEKSLQFDEKCLSIMLAEKEA, with 4.47; and ISEYEKSLQFDEKCLSIMLAEPEA, with 3.93; and ISEYEKSLQFDEKCLSIMLAEHEA, with 3.98. Then ISEYEKSLQFDEKCLSIMLAEYEA, with 1.69; and ISEYEKSLQFDEKCLSIMLAEQEA, with 3.08.

For the variant ISEYEKSLQFDEKCLSIMLAECEA, the protein stability index was 1.5. Next, ISEYEKSLQFDEKCLSIMLAEFEA: 2.79. Next, ISEYEKSLQFDEKSLSIMLAEWEA: 1.89. Consider ISEYEKSLQFDEKRLSIMLAEWEA, for which the protein stability index was determined as 2.32. Then ISEYEKELQFDEKCLSIMLAEWEA, with 1.48. Then ISEYEKQLQFDEKCLSIMLAEWEA, with 2.13; and ISEYEKHLQFDEKCLSIMLAEWEA, with 2.7. For the variant ISEYEKSKQFDEKCLSIMLAEWEA, the protein stability index was determined as 2.47. Next, ISEYEKSWQFDEKCLSIMLAEWEA: 2.9; ISEYEKSYQFDEKCLSIMLAEWEA: 2.27; ISEYEKSFQFDEKCLSIMLAEWEA: 1.9. Then ISEYEKSDQFDEKCLSIMLAEWEA, with 3.69; and ISTYEKSLQFDEKCLSIMLAEWEA, with 2.91. Regarding ISKYEKSLQFDEKCLSIMLAEWEA, the protein stability index amounted to 2.4.

As to ISSYEKSLQFDEKCLSIMLAEWEA, the protein stability index is 1.68.

On to ISEYEKSLQFDEKCLSIVLAEWEA, for which the protein stability index is 1.51. Regarding ISEYEKSLQFDEKCLSICLAEWEA, the protein stability index stood at 1.81.

On to ISEYEKSLQFDEKCLSISLAEWEA, for which the protein stability index is 2.56. Consider ISEYEKSLQFDEKCLSIDLAEWEA, for which the protein stability index worked out at 3.26.

Consider ISEYEKSLQFDEKCLSIKLAEWEA, for which the protein stability index was 2.19.

Turning to ISEYEQSLQFDEKCLSIMLAEWEA, the protein stability index was 2.06. Next, ISEYEMSLQFDEKCLSIMLAEWEA: 1.73; ISEYESSLQFDEKCLSIMLAEWEA: 1.34; ISEYNKSLQFDEKCLSIMLAEWEA: 1.51. Next, ISEYPKSLQFDEKCLSIMLAEWEA: 2.33; ISEYRKSLQFDEKCLSIMLAEWEA: 1.32; ISEYWKSLQFDEKCLSIMLAEWEA: 1.23. Next, ISEYYKSLQFDEKCLSIMLAEWEA: 2.3. ISEYQKSLQFDEKCLSIMLAEWEA: the protein stability index was found to be 1.92.
